Publication PMC11662662

Target: H3K23ub mononucleosomes (H3 'K23ub' thioether mimic), P68431;P0CG48;P04908;O60814;P62805
Test: Alpha-screen proximity assay

recombinant DNMT1 RFTS domain WT (His-MBP-RFTS) (from UniProt P26358) P378A; L381A
Kd: 140 nM
